{"source": "paper PMC5814221", "molecular_target": "Growth arrest-specific protein 6 (GAS6) (UniProt Q63772)", "sequence (Q63772 28-674)": "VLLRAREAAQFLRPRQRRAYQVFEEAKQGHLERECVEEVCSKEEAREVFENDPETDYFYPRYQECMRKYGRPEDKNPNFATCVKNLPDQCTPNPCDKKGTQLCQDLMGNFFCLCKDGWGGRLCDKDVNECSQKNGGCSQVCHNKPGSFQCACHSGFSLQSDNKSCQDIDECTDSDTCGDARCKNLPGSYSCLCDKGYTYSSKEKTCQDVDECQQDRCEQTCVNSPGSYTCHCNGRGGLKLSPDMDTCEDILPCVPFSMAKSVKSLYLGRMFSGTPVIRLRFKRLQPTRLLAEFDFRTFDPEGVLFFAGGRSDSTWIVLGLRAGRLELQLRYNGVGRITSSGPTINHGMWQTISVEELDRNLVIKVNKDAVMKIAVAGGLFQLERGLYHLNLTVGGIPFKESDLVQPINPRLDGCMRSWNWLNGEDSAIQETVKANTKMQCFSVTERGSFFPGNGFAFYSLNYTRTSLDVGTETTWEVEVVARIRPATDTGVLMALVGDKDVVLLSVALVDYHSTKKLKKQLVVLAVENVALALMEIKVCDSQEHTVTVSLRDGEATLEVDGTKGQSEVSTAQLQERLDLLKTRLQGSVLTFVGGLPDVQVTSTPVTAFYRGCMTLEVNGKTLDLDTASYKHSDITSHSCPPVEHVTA", "data": [{"substance": "AXL-Fc protein fragment (soluble form of AXL) (Fc fusion)", "values": [{"measurement": "proliferation of RSC96 cells (WST-1) treated with AXL-Fc, percent decrease after 24 h, 48 h and 72 h (31.3%, 35.1%, 43.1%)", "result": 43.1, "unit": "% decreased"}]}]}
